Reference: US20250340646A1 (ELPIS BIOPHARMACEUTICALS, published 2025)
Positions count from the first letter of the chain named. Read-outs that look alike come from different tables or passages of the source. Each block holds one binder with its values, some of them ahead of it.

How the values were obtained:
[1] = biological target: T1, human PD-L1-Fc (human, UniProt Q9NZQ7 19-238); test: ELISA, coated PD-L1-Fc, anti-FLAG HRP
T1 construct: also called recombinant PD-L1-Fc fusion protein
Experimental: (§1) The plate was incubated overnight at 4° C. followed by blocking with 80 μL of superblock per well for 1 hour. […] In between each step, the plate was washed 3 times with 1×PBST in a plate washer. The plate was then developed with 20 μL of TMB substrate for 5 min and stopped by adding 20 μL of 2N sulfuric acid. The plate was read at OD450 nm Biotek plate reader and then plotted in Prism 8.1 software.
(§2) The production, the binding, and all of the characterization assays for selected affinity matured scFv clones were performed as described above.

[2] = biological target: T1, human PD-L1-Fc; test: SPR, PD-L1-Fc captured, scFv analyte
Experimental: The assay was run with Biacore T200 control software version 2.0. Anti-human Fc antibody was immobilized on flow cell 1 and 2 of CM5 sensor chip. […] The flow cells were then regenerated with antibody regeneration buffer (GE Healthcare) for 30 seconds at flow rate of 30 μl/min.
as §2

[3] = biological target: T2, PD-L1 biotinylated (PD-1/PD-L1 TR-FRET assay kit, BPS 72038) (Homo sapiens (Human), UniProt Q9NZQ7 19-238, biotinylated; site not stated); test: HTRF PD-1/PD-L1 competition (PD-1-Eu and biotinylated PD-L1), % activity; blocked ligand PD-1-Eu
T2 construct: Kit reagent
Experimental: (§3) Briefly, 1× Immuno buffer 1 was made. […] For each well in 384-well plate, serial diluted scFvs and regents were added according to manufacturer's recommended volume. Samples were incubated at room temperature for 1.5 hours then the fluorescent intensity was read with Biotek Neo2 plate reader using manufacture's instrument setting for the assay.
as §2

[4] = biological target: PD-L1 on PD-L1 aAPC/CHOK1 cells (Promega J1250); test: cell-based or functional assay
[5] = biological target: T3, full-length human PD-L1 on K562 cells (human, UniProt Q9NZQ7 19-290); test: FACS, PD-L1/K562 cells
T3 construct: also called PD-L1/K562; cell surface human PD-L1
Experimental: (§4) Cells were spun down at 1200 rpm for 5 minutes at 4° C. to remove primary antibodies. Cells were then washed once with 200 μL of full medium per well. […] Samples were spun down at 1200 rpm for 5 minutes at 4° C. and washed twice with 200 μL of 1×PBS per well. Samples were reconstituted in 200 μL of 1×PBS and were read on Attune NxT cytometer.
as §2

[6] = biological target: PD-L1 on PD-L1 aAPC/CHOK1 cells (Promega J1250); test: cell-based or functional assay; remark: listed apart in the source
[7] = biological target: T3, full-length human PD-L1 on K562 cells; test: FACS, PD-L1/K562 cells; remark: listed apart in the source
Experimental: as §4

[8] = biological target: T2, PD-L1 biotinylated (PD-1/PD-L1 TR-FRET …); test: HTRF competition, competitor PD-1-Eu
Experimental: as §3

[9] = biological target: T4, human PD-L1-HIS tagged recombinant protein (human, UniProt Q9NZQ7 19-238); test: SPR, IgG on Protein A, PD-L1-HIS analyte
T4 construct: also called hPD-L1-HIS; PD-L1 HIS tagged protein
Experimental: The assay was run with Biacore T200 control software version 2.0. For each cycle, 1 μg/mL of anti-hPD-L1-IgG was captured for 60 seconds at flow rate of 10 μl/min on flow cell 2 in 1×HBSP buffer on Protein A sensor chip. […] The flow cells were then regenerated with Glycine pH 2 for 60 seconds at flow rate of 30 μl/min. […] The specific binding response unit was derived from subtraction of binding to reference flow cell 1 from antibody captured flow cell 2.

[10] = biological target: T1, human PD-L1-Fc; test: ELISA, coated PD-L1-Fc, anti-FLAG HRP; remark: listed apart in the source
Experimental: as §1

B1: 2019EP69-F03 scFv (scFv, not shown: small tags and cut ends)
scFv: QVQLVQSGAEVKKPGSSVKVSCKASGGTFSSYAISWVRQAPGQGLEWMGGIIPIFGTANYAQKFQGRVTITADESTSTAYMELSSLRSEDTAVYYCARDKWYGSAWRGDYWGQGTLVTVSSGGGGSGGGGSGGGGSQSVLTQPPSASGTPGQRVTISCSGSYSNIGSNFVNWYQQLPGTAPKLLIHFNNQRPSGVPDRFSGSRSGTSASLAISGLQSEDEADYFCSTWDDSLKGPIFGGGTKLTVL
EC50 [1]: 0.696 nM
Kd [2]: 0.0797 nM
koff [2]: 9.87e-05 s⁻¹
kon [2]: 1.24e+06 M⁻¹ s⁻¹
IC50 (read off the curve) [3]: ~100 nM
Jurkat NFAT reporter assay EC50 [4]: 123 nM
EC50 [5]: 0.115 nM

B2: 2018EP280-E04 scFv (scFv, V domains shown)
VH: QVQLQQWGAGLLKPSETLSLTCAVYGGSFSGYYWSWIRQPPGKGLEWIGEINHIGSTNYNPSLKSRVTISVDTSNNQFSLKLSSVTAADTAVYYCARGRRLRYFDWAAYNWFDPWGQGTLVTVSS
VL: QSALTQDPAVSVALGQTVRISCQGDSLRSHYASWYQQKPGQAPVVVVYDNSDRPSGIPDRFSGSNSGNTATLTISRVEVGDEADYYCQVWDSSSDHYVFGTGTKVTVL
notes: not shown: scFv linker and domain order of the library scFv
Jurkat NFAT reporter assay EC50 [6]: 133 nM
EC50 [7]: 5.51 nM
IC50 [8]: 38.5 nM

B6: 2018EP170-E06 scFv (scFv, V domains shown)
VH: EVQLVQSGAEVKKPGSSVKVSCKASGGTFSSYAISWVRQAPGQGLEWMGGIIPIFGTANYAQKFQGRVTITADESTSTAYMELSSLRSEDTAVYYCARDSRWGPAPHAFDIWGQGTMVTVSS
VL: QQSVLTQPASVSGSPGQSITISCTGTSSDIGSYNLVSWYQNHPGKAPKLILYEITKRPSGVSSRFSGSKSGNAASLTISGLQAEDEAEYFCCSYAGLSVFFVFGGGTKL
EC50 [7]: 35.9 nM
EC50 [10]: 158 nM

B7: 2018EP161-G08 scFv (scFv, V domains shown)
VH: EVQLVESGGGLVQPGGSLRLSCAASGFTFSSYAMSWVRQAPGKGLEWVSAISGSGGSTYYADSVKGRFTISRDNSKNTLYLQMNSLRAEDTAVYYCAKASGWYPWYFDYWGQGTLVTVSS
VL: VIWMTQSPSSLSASLGDRVTITCRASQSVSTYINWYQQKSGKGPKLLIFNASTLQSGVPSRFSGSGSGTDFTLTITSLQPDDSATYYCQQSYRVPLSFGGGTKVEIR
EC50 [10]: 1.16 nM

B8: 2018EP280-E01 scFv (scFv, V domains shown)
VH: EVQLVESGGGLVKPGGSLRLSCAASGLTFSNAWMSWVRQAPGKGLEWVGRIKSKTDGGTTEYAAPVKGRFTISRDDSKNTLYLQMSSLKTEDTAVYYCTIVYYYDSSGPVFFQHWGQGTLVTVSS
VL: QSVLTQPPSASATPGQRVTISCSGSDSNIATNYVYWYQQFPGTAPKLLIYRNHQRPSGVPDRFSGSRSGTSASLAISGLRSEDEADYYCATWDDSVNSWVFGGGTKLTVL
notes: as for B2
Jurkat NFAT reporter assay EC50 [6]: 400 nM
EC50 [7]: 10.8 nM
IC50 [8]: 76.8 nM
EC50 [10]: 8.1 nM

Other lines, results leading:

Kd [9]: 2.76 nM
B3: anti-PD-L1 IgG antibody 2018EP280-E04 (printed construct pair EP486/EP489) (antibody, V domains shown)
VH: B2 VH
VL: QSALTQDPAVSVALGQTVRISCQGDSLRSHYASWYQQKPGQAPVVVVYDNSDRPSGIPDRFSGSNSGNTATLTISRVEVGDEADYYCQVWDSSSDHYVFGTGTKVTVLG

Kd [9]: 5.73 nM
B4: anti-PD-L1 IgG antibody EP480/EP481 (2018EP164-F04) (antibody, V domains shown)
VH: B2 VH with I54S, N75K
VL: B3 VL with S21T, T106E, V107I, L108R, G109T

Kd [9]: 9.5 nM
B5: anti-PD-L1 IgG antibody EP488/EP489 (2018EP171-H02) (antibody, V domains shown)
VH: QVQLVQSGAEVKKPGSSVKVSCKASGGTFSSYAISWVRQAPGQGLEWMGGIIPIFGTANYAQKFQGRVTITADESTSTAYMELSSLRSEDTAVYYCARDKGYGSGWRGDYWGQGTLVTVSS
VL: QSVLTQPPSASGTPGQRVTISCSGSYSNIGSNFVNWYQQLPGTAPKLLIHFNNQRPSGVPDRFSGSRSGTSASLAISGLQSEDEADYFCSTWDDSLKGPIFGGGTKLTVLG
